Reference: PMC10050235, “Structural basis of Ty1 integrase tethering to RNA polymerase III for targeted retrotransposon integration” (Nature Communications, 2023)
Values belong to the molecule of their own block, whether it stands above or below them.

T1: Pol III subunit C37 (within purified Pol III) (S. cerevisiae (endogenous in strain …, UniProt P36121 1-282))
T1 construct: RNA polymerase III subunit C37, S. cerevisiae; Subunit of m2, written alone for the pairs that touch in the structures; source: endogenous, S. cerevisiae strain SC1613, purified as part of Pol III (IgG Sepharose, TEV elution, Mono-Q)
T1 sequence (looked up): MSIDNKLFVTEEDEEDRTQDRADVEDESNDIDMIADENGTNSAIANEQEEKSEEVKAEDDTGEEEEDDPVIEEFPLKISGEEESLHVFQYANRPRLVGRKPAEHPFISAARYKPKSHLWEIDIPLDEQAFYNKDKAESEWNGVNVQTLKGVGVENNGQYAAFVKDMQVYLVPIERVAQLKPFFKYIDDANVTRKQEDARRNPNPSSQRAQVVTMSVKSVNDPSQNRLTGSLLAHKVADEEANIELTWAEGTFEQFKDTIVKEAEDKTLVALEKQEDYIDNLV

T2: Pol III subunit C128 (within purified Pol III) (S. cerevisiae (endogenous in strain …, UniProt P22276 1-1149))
T2 construct: RNA polymerase III second largest subunit C128, S. cerevisiae; Subunit of m2, written alone for the pairs that touch in the structures; source: endogenous, S. cerevisiae strain SC1613, purified as part of Pol III (IgG Sepharose, TEV elution, Mono-Q)
T2 sequence (looked up): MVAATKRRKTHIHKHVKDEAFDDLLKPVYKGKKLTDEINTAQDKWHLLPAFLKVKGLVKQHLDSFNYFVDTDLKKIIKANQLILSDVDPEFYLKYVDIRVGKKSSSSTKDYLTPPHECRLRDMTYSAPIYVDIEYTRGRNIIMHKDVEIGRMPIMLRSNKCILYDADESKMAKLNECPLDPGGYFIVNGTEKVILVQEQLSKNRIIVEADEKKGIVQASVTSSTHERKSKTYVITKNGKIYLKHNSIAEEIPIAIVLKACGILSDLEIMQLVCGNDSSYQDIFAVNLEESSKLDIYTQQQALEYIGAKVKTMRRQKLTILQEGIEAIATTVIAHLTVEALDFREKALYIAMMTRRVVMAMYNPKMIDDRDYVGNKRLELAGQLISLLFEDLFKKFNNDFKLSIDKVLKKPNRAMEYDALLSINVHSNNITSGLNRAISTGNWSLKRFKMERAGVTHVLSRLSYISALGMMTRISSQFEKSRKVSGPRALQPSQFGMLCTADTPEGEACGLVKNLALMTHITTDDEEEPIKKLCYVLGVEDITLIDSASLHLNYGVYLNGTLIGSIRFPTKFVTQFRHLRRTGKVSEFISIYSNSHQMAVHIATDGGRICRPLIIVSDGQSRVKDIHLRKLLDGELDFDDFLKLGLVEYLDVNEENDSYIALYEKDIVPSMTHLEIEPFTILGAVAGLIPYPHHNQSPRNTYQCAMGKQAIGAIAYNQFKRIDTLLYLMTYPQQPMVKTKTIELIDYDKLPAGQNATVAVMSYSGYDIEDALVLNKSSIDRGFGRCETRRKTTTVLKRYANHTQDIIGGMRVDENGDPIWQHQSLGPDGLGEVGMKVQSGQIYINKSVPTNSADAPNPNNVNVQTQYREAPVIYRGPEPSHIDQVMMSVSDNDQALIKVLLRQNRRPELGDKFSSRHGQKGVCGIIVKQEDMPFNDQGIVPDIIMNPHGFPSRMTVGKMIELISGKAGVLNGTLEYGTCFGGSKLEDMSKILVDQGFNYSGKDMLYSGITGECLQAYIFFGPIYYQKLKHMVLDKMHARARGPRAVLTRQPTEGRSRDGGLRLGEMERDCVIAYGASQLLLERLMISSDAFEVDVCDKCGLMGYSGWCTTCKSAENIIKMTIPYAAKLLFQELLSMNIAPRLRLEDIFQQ

T3: Pol III subunit C160 (within purified Pol III) (S. cerevisiae (endogenous in strain …, UniProt P04051 1-1460))
T3 construct: RNA polymerase III largest subunit C160, S. cerevisiae; Subunit of m2, written alone for the pairs that touch in the structures; source: endogenous, S. cerevisiae strain SC1613, purified as part of Pol III (IgG Sepharose, TEV elution, Mono-Q)
T3 sequence (looked up): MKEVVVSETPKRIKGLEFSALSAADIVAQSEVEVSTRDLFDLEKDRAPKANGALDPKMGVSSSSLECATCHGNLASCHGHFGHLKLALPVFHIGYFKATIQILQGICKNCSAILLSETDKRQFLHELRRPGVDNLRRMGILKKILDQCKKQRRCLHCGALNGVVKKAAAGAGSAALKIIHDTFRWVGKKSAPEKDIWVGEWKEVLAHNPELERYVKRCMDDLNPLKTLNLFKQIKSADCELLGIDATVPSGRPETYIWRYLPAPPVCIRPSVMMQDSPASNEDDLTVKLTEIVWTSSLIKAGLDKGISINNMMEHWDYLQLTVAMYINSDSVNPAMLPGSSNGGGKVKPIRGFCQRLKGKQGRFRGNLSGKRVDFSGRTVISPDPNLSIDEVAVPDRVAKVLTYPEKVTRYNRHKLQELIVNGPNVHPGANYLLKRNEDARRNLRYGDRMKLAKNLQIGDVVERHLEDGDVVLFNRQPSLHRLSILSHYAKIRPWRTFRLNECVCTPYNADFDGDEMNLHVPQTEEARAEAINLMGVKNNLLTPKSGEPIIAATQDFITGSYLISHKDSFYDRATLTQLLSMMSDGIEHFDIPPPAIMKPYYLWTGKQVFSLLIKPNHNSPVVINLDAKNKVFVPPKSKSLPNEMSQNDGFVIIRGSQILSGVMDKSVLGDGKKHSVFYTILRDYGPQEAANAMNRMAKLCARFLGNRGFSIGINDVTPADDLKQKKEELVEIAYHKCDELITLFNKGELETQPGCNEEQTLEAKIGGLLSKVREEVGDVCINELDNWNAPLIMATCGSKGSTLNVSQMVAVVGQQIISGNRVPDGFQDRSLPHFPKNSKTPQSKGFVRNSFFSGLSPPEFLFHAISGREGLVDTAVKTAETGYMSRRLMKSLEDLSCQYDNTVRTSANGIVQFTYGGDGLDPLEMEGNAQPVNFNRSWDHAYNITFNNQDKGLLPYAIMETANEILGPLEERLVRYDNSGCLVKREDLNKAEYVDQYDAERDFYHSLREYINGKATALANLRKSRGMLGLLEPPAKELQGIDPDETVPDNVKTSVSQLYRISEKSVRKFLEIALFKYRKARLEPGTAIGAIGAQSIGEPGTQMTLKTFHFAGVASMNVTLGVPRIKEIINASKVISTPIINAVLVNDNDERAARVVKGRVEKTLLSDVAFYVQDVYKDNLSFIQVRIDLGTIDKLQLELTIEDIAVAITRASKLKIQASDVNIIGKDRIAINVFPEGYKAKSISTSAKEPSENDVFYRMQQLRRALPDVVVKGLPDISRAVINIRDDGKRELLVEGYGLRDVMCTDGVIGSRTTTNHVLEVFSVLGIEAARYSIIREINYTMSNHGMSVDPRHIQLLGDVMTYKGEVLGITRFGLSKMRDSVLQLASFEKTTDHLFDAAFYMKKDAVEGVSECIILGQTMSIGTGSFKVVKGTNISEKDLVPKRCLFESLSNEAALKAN

B1: Pol III subunit C11 (within purified Pol III) (natural protein, UniProt Q04307 1-110, looked up)
chain: MLSFCPSCNNMLLITSGDSGVYTLACRSCPYEFPIEGIEIYDRKKLPRKEVDDVLGGGWDNVDQTKTQCPNYDTCGGESAYFFQLQIRSADEPMTTFYKCVNCGHRWKEN
notes: RNA polymerase III subunit C11, S. cerevisiae; two Zn-ribbons (residues 1-36 and 64-110) joined by a linker (37-63); Subunit of m2, written alone for the pairs that touch in the structures; source: endogenous, S. cerevisiae strain SC1613, purified as part of Pol III (IgG Sepharose, TEV elution, Mono-Q)
B2: Pol III subunit C53 (within purified Pol III) (natural protein, UniProt P25441 1-422, looked up)
chain: MSSNKGNGRLPSLKDSSSNGGGSAKPSLKFKPKAVARKSKEEREAAASKVKLEEESKRGNDKKHFNNKNKRVTGAGGQQRRMAKYLNNTHVISSGPLAAGNFVSEKGDLRRGFIKSEGSGSSLVQKGLETIDNGAESSENEAEDDDNEGVASKSKKKFNMGKEFEARNLIEDEDDGESEKSSDVDMDDEEWRSKRIEQLFPVRPVRVRHEDVETVKREIQEALSEKPTREPTPSVKTEPVGTGLQSYLEERERQVNEKLADLGLEKEFQSVDGKEAAAELELLNADHQHILRKLKKMNNKPERFMVFQLPTRLPAFERPAVKEEKEDMETQASDPSKKKKNIKKKDTKDALSTRELAGKVGSIRVHKSGKLSVKIGNVVMDIGKGAETTFLQDVIALSIADDASSAELLGRVDGKIVVTPQI
notes: RNA polymerase III subunit C53, S. cerevisiae; N-terminal low-complexity region C53-Nt is residues 1-274; Subunit of m2, written alone for the pairs that touch in the structures; source: endogenous, S. cerevisiae strain SC1613, purified as part of Pol III (IgG Sepharose, TEV elution, Mono-Q)

Key:
[1] = target: RNA polymerase III (Pol III), 17 subunits, isolated from yeast (S. cerevisiae (endogenous in strain SC1613)) (UniProt P04051); assay: native gel or EMSA; recombinant IN1 mixed with Pol III isolated from yeast, free of nucleic acids; native gel electrophoresis
[2] = target: B2; assay: cryo-EM structure; Pol III and IN1 both at 0.5 uM in 20 mM HEPES-NaOH pH 7.5, 170 mM NaCl, 2 mM DTT, 30 min at 4 °C; crosslinked with 0.06% glutaraldehyde; no nucleic acids (maps A-C); settings: both partners purified
[3] = target: T1, Pol III subunit C37 (within purified …); assay: as above; settings: both partners purified
[4] = target: T2, Pol III subunit C128 (within purified …); assay: as above; settings: both partners purified
[5] = target: T3, Pol III subunit C160 (within purified …); assay: cryo-EM structure; Pol III-DNA (0.4 uM, mismatched transcription bubble) mixed with 0.6 uM IN1, 30 min at 20 °C in 10 mM Hepes pH 7.5, 150 mM NaCl, 5 mM MgCl2, 5 mM DTT; 8 mM CHAPSO on the grid (map D); settings: both partners purified
[6] = target: T3, Pol III subunit C160 (within purified …); assay: cryo-EM structure; Pol III and IN1 both at 0.5 uM in 20 mM HEPES-NaOH pH 7.5, 170 mM NaCl, 2 mM DTT, 30 min at 4 °C; crosslinked with 0.06% glutaraldehyde; no nucleic acids (maps A-C); settings: both partners purified

stoichiometry N [1]: 1
Molecule: Ty1 integrase (IN1), recombinant (from UniProt Q12414 583-1217) (enzyme)

Molecule: B1
binding result [2]: binds | binding result [3]: binds | binding result [4]: binds | binding result [5]: binds

Molecule: B2
binding result [6]: binds
